In publication doi:10.1101/2025.08.15.670619 one finds stoichiometry N data, which are given here for one substance.

This assay addresses Full-length Synechococcus PCC 7335 nitric oxide synthase (syNOS) (Synechococcus sp. PCC 7335). Nature of the assay: cryo-EM structure.

In turn, “Full-length Synechococcus PCC 7335 nitric oxide synthase (syNOS) (enzyme)” showed a stoichiometry N of 2.

What is called stoichiometry N is a count of units in the complex or per binding partner.
